From US20240301086A1 (APTEVO RESEARCH AND DEVELOPMENT, published 2024)

What was measured:
[1] = biological target: T1, cynomolgus Fcγ receptor III (cynomolgus monkey, UniProt Q8SPW2 17-208); assay: SPR (Biacore T200), construct amine-coupled, soluble cyno Fcγ receptor as analyte
T1 construct: Called recombinant, soluble; also called Cyno RIII
Experimental: (§1) The Fc region incorporated into anti-PSMA bispecific constructs contained mutations intended to reduce or abolish binding to common human and cynomolgus Fc gamma receptors. SPR experiments were conducted at 25° C. in HBS-EP+ with 0.2% BSA buffer on a Biacore T200 system to evaluate the impact of these mutations on binding. For these experiments, three flow cells of a CM5 sensor chip were immobilized with anti-PSMA bispecifics by standard amine coupling to a response level of ˜2000 RU. A blank immobilization was performed on flow cell #1 for purposes of background signal subtraction. Both human and cynomolgus monkey Fcγ receptors (purchased from R&D Systems) were diluted in HBS-EP+ with 0.2% BSA to 4-6 μM and then flowed as analytes at 30 μL/min for 120 seconds followed by a 240 second dissociation step. No regeneration step was required. Blank-subtracted sensorgrams were visually inspected for binding to each of the Fcγ receptor proteins. […] Attenuated binding to Fcγ receptors IIA (both polymorphic variants) and IIB/C was observed. PSMA01107 and PSMA01108 share the same Fc amino acid sequence and therefore equivalent Fcγ receptor binding behavior was expected.

[2] = biological target: T2, Full-length Human PSMA (TSC435), on cells (human, UniProt Q04609 1-750); assay: flow cytometry, drawn table 'On- Cell Binding Parameters', row 'Human PSMA binding affinity'
T2 construct: also called CHOK1SV/huPSMA; PSMA on C4-2B, 22RV1, LNCaP, MDA-PCa-2b cells

[3] = biological target: T3, Full-length cynomolgus monkey PSMA (TSC308), on cells (cynomolgus monkey, UniProt Q04609 1-750 (human entry)); assay: flow cytometry on CHO-CynoPSMA cells, Median (PE); drawn table row 'Cyno PSMA binding affinity'
T3 construct: also called cyno PSMA; CHOK1SV/cynoPSMA
T3 chain: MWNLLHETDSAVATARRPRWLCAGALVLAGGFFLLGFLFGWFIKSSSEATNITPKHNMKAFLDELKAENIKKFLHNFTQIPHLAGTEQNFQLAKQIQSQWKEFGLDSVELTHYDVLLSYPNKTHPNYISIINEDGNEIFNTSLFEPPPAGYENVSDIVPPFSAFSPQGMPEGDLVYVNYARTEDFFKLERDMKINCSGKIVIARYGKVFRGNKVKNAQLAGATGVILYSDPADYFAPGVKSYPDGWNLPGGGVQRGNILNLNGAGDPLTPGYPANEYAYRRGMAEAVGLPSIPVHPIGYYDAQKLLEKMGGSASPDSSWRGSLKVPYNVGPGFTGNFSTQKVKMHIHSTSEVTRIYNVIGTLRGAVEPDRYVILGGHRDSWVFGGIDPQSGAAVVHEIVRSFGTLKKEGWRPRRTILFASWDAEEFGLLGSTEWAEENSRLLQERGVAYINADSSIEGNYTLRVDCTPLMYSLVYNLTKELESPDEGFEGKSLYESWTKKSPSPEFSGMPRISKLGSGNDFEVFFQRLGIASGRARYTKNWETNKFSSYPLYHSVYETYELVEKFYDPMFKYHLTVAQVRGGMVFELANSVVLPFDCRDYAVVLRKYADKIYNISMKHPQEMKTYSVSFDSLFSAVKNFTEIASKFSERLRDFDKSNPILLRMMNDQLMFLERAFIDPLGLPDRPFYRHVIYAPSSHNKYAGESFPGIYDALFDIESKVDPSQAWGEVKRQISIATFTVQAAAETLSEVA

[4] = biological target: human Fcγ receptor IIIA, V176 variant (human, UniProt P08637 17-208); assay: SPR (Biacore T200), construct amine-coupled, Fcγ receptor as analyte
Experimental: as §1

human Fcγ receptor IIIB = human Fcγ receptor IIIB (human, UniProt O75015 17-200); assay: as above
Experimental: as §1

human Fcγ receptor I = human Fcγ receptor I (human, UniProt P12314 16-288); assay: as above
Experimental: as §1

[5] = biological target: human Fcγ receptor IIIA, F176 variant (human, UniProt P08637 17-208); assay: as above
Experimental: as §1

[6] = biological target: T4, human CD3ε in the TCR/CD3 complex on Jurkat cells (human, UniProt P07766 23-207); assay: flow cytometry, drawn table 'On- Cell Binding Parameters', row 'Human CD3 binding affinity'
T4 construct: whole, on cells; On the cells it stands in the whole TCR/CD3 complex; also called CD3 (+) cells; CD3-expressing Jurkat cells
Experimental: (§2) Constructs were initially tested in CD3ε and PSMA binding assays on Jurkat and C4-2B cells. Cells were labelled at approximately 100,000 cells per well, in 96-well plates, with serial dilutions of bispecific constructs ranging in concentration from of 0.1 to 300 nM, for 30 min on ice. Primary label was followed by washes and incubation with PE-labeled minimum cross species reactive secondary antibody, goat anti-human IgG Fcγ, F(ab′)2 (Jackson Laboratory) for 30 minutes on ice. Washes and incubation were done in staining buffer (PBS with 0.2% BSA and 2 mM EDTA). Cells were collected using an BD™ LSRII or a BD FACSymphony™ flow cytometer (BD Biosciences) and analyzed by FlowJo flow cytometry analysis software. Median fluorescence intensity (MFI) of bound molecules on cells was determined after exclusion of doublets. Results were plotted and nonlinear regression analysis to determine EC50 values was performed using GraphPad Prism 7© graphing and statistics software.

[7] = biological target: T2, Full-length Human PSMA (TSC435), on …; assay: flow cytometry on C4-2B cells, PE goat anti-human IgG Fc secondary, MFI (median)
Experimental: as §2

[8] = biological target: T4, human CD3ε in the TCR/CD3 complex on …; assay: flow cytometry on Jurkat cells, PE goat anti-human IgG Fc secondary, MFI (median)
Experimental: as §2

[9] = biological target: T2, Full-length Human PSMA (TSC435), on …; assay: flow cytometry on C4-2B cells, PE goat anti-human IgG Fc secondary, MFI (median); remark: listed apart in the source
Experimental: as §2

[10] = biological target: T4, human CD3ε in the TCR/CD3 complex on …; assay: flow cytometry on Jurkat cells, PE goat anti-human IgG Fc secondary, MFI (median); remark: listed apart in the source
Experimental: as §2

T4 sequence (P07766 23-207, one chain of several): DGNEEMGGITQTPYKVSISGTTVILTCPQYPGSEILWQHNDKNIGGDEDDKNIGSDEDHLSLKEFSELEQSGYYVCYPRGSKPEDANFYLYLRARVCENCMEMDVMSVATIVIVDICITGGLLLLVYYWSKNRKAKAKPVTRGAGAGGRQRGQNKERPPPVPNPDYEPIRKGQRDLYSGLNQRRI
Sequence of human Fcγ receptor IIIB (O75015 17-200): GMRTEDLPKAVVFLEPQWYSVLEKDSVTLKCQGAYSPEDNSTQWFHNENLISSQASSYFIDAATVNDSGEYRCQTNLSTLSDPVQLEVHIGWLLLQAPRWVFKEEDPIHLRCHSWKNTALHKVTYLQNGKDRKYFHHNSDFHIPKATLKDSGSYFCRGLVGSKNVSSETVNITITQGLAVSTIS
Sequence of human Fcγ receptor I (P12314 16-288): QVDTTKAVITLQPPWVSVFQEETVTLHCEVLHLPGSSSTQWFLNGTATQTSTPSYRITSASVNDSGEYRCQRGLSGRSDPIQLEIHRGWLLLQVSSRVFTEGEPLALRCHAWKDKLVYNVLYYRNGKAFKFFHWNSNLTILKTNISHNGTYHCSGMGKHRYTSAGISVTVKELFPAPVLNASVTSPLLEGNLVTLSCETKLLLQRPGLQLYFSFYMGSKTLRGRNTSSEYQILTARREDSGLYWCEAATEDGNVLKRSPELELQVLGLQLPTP
T1 sequence (Q8SPW2 17-208): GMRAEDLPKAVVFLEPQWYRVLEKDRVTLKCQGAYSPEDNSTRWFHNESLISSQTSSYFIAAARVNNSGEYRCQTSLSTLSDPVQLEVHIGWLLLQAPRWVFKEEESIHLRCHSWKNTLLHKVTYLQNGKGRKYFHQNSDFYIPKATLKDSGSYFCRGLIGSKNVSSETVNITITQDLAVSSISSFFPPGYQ
Sequence of human Fcγ receptor IIIA, V176 variant (P08637 other isoform, or with tags, fused parts or gaps mutant): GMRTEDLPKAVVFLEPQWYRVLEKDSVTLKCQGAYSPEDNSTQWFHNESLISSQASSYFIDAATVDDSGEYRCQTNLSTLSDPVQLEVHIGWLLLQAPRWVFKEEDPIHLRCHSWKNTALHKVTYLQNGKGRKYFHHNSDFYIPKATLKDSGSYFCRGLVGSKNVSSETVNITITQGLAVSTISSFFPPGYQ
Sequence of human Fcγ receptor IIIA, F176 variant (P08637 17-208, change not shown): as the sequence (P08637 other isoform, or with tags, fused parts or gaps mutant) above, with V160F counted along it

binding result [1]: no binding (tested: 4-6 µM) | EC50 [2]: 1 nM | Max [2]: 2500 | EC50 [3]: 4 nM | Max [3]: 19500 | binding result [4]: no binding (tested: 4-6 µM) | binding result (human Fcγ receptor IIIB): no binding (tested: 4-6 µM) | binding result (human Fcγ receptor I): no binding (tested: 4-6 µM) | binding result [5]: no binding (tested: 4-6 µM) | EC50 [6]: > 200 nM | Max [6]: 409 | EC50 [7]: 1 nM | EC50 [8]: > 200 nM | EC50 [9]: 1 nM | EC50 [10]: > 210 nM
B1: PSMA01108 Anti-PSMA scFv x Fc x linker x Anti CD3 scFv; Anti PSMA scFv x Fc (bispecific antibody)
chain 1: QVQLVQSGAEVKKPGASVKVSCKASGYTFTDYYMHWVRQAPGQGLEWMGYFNPYNDYTRYAQKFQGRVTMTRDTSTSTVYMELSSLRSEDTAVYYCARSDGYYDAMDYWGQGTTVTVSSGGGGSGGGGSGGGGSGGGGSDIQMTQSPSSLSASVGDRVTITCRASKSISKYLAWYQQKPGKAPKLLIHSGSSLESGVPSRFSGSGSGTEFTLTISSLQPDDFATYYCQQHIEYPWTFGQGTKVEIKEPKSSDKTHTCPPCPAPPAAAPSVFLFPPKPKDTLMISRTPEVTCVVVDVSHEDPEVKFNWYVDGVEVHNAKTKPREEQYNSTYRVVSVLTVLHQDWLNGKEYKCAVSNKALPAPIEKTISKAKGQPREPQVYTLPPSRDELTKNQVSLWCLVKGFYPSDIAVEWESNGQPENNYKTTPPVLDSDGSFFLYSKLTVDKSRWQQGNVFSCSVMHEALHNHYTQKSLSLSPGGGGSPSDIQMTQSPSSLSASVGDRVTITCRASSSVSYMNWYQQKPGKAPKRWIYDSSKLASGVPSRFSGSGSGTDFTLTISSLQPEDFATYYCQQWSRNPPTFGQGTKVEIKGGGGSGGGGSGGGGSGGGGSQVQLVQSGAEVKKPGASVKVSCKASGYTFTRSTMHWVRQAPGQGLEWIGYINPSSAYTNYAQKFQGRVTLTADKSTSTAYMELSSLRSEDTAVYYCASPQVHYDYNGFPYWGQGTLVTVSS
chain 2: QVQLVQSGAEVKKPGASVKVSCKASGYTFTDYYMHWVRQAPGQGLEWMGYFNPYNDYTRYAQKFQGRVTMTRDTSTSTVYMELSSLRSEDTAVYYCARSDGYYDAMDYWGQGTTVTVSSGGGGSGGGGSGGGGSGGGGSDIQMTQSPSSLSASVGDRVTITCRASKSISKYLAWYQQKPGKAPKLLIHSGSSLESGVPSRFSGSGSGTEFTLTISSLQPDDFATYYCQQHIEYPWTFGQGTKVEIKEPKSSDKTHTCPPCPAPPAAAPSVFLFPPKPKDTLMISRTPEVTCVVVDVSHEDPEVKFNWYVDGVEVHNAKTKPREEQYNSTYRVVSVLTVLHQDWLNGKEYKCAVSNKALPAPIEKTISKAKGQPREPQVYTLPPSRDELTKNQVSLSCAVKGFYPSDIAVEWESNGQPENNYKTTPPVLDSDGSFFLVSKLTVDKSRWQQGNVFSCSVMHEALHNHYTQKSLSLSPG
notes: also called PSMA1108; PSAM01108
